Among the targets are p85α nSH2 (325-430) (human, UniProt P27986 325-430); p85β nSH2 (312-425) (mouse, UniProt O08908 312-425); p85α cSH2 (614-720) (human, UniProt P27986 614-720); p85α nSH2 R358M (human, UniProt P27986 325-430, R358M).
Assay in all cases: FP
For another assay, the target named is T1, p85β cSH2 (603-712) (mouse, UniProt O08908 603-712).
T1 chain: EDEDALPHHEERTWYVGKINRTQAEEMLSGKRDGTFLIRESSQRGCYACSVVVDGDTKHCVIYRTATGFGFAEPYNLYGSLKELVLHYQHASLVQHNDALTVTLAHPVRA

Where no end group is shown, it is not given here. [ ]: non-standard residue; d: D form. The star is where a group is joined. 5FAM = O=C1OC2(c3ccc(O)cc3Oc3cc(O)ccc32)c2ccc(C(=O)*)cc21; pY = N[C@@H](Cc1ccc(OP(=O)(O)O)cc1)C(=O)O

Sequence of p85α cSH2 (614-720) (P27986 614-720): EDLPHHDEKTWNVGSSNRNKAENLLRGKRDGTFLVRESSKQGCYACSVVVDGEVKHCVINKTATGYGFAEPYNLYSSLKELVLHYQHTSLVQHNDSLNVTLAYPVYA
Sequence of p85α nSH2 (325-430) (P27986 325-430): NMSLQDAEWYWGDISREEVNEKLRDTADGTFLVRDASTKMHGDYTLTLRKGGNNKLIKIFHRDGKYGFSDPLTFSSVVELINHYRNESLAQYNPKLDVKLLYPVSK
Sequence of p85β nSH2 (312-425) (O08908 312-425): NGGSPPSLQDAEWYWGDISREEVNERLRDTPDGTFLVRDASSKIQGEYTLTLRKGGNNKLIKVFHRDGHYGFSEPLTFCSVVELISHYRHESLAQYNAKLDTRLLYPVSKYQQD
Sequence of p85α nSH2 R358M (P27986 325-430 R358M): as the sequence (P27986 325-430) above, with R34M counted along it

For the molecule 5FAM-TEDQ[pY]SLVEDE [p85α pY607 peptide, [5-FAM]-TEDQ-[pY]-SLVEDE], the results for the Kd with p85α nSH2 (325-430), in the assay with p85β nSH2 (312-425) and with p85α cSH2 (614-720) were 2400 nM, 9000 nM and 84000 nM, respectively.

As for 5FAM-TEDQ[pY]SLMEDE [p85β pY607 peptide, [5-FAM]-TEDQ-[pY]-SLMEDE], the Kd with p85α nSH2 R358M was determined as 2900 nM; with p85α nSH2 (325-430), 82 nM; with p85β nSH2 (312-425), 52 nM; with p85α cSH2 (614-720), 656 nM.

In the case of 5FAM-SD[pY]MNMTP [CD28 peptide, [5-FAM]-SD-[pY]-MNMTP], the Kd with p85β cSH2 (603-712) is 100 nM; in the assay with p85α cSH2 (614-720) it was 43 nM.

The values are drawn from paper doi:10.1101/791277 (2019).
